The series deals with T1, mthSBDS (Methanothermobacter thermautotrophicus, UniProt O26781 1-232, R175M).
T1 sequence: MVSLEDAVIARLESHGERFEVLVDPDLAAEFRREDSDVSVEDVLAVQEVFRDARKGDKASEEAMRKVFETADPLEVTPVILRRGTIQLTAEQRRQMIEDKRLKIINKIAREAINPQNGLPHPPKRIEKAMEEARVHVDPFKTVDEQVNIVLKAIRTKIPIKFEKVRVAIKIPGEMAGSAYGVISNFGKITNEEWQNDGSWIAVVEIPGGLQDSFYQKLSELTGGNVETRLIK
Put plainly: EMSA; SPR: 10 mM HEPES pH 7.5, 150 mM NaCl, 5 uM EDTA, 0.05% P20, +/- 5 mM MgCl2, temperature not stated; SELEX: 25 mM Tris pH 7.5, 0.5 M NaCl; EMSA: protein 1e-12 to 1e-4 M, buffer not stated. The note with it: protein: recombinant; tags: N-terminal 19-aa extension with His6 (pET28a). (In general: Mobility shift assays separate free from complexed probe on a gel.)

As to AAAAAAAAAAAAAAAAAAAAAAAAAAAAAA (ssRNA) [30-base poly(A) RNA], the binding result is recorded as “no binding”.
